In the supplement of paper PMC7125110:
± gives the standard error. For part of these data: Variants at the floor of the assay were thinned out.

B1: glmS ribozyme (parent)
chain: AUAAAAGCGCCAGAACUACAGAAAUGUAGUUGACGAGGAGGAGGUUUAUCGAAUUUUCGGCGGAUGCCUCCAAA

Columns and labels:
Settings in all cases: with glucosamine-6-phosphate
glucosamine-6-phosphate [1] = variants of: B1; assay: kcat; higher = faster cleavage; RNA array
Method in brief: (§1)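 Glucosamine-6-phosphate in HEPES/KCl/Mg(OAc)2 buffer, at 40 μM to 10 mM, was flowed over barcoded ribozyme variants transcribed in situ by E. coli RNA polymerase on sequenced MiSeq chips. Tracking was through a hybridised Cy3 probe at 37 °C. kobs, kcat and KM came from exponential decay fits and weighted Michaelis–Menten fits of normalised per-tile medians.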

glucosamine-6-phosphate [2] = variants of: B1; assay: KM; higher = weaker cofactor use; RNA array
Method in brief: as §1

glucosamine-6-phosphate [3] = variants of: B1; assay: self-cleavage kobs at 40 uM GlcN6P; higher = faster cleavage; RNA array
Method in brief: as §1

glucosamine-6-phosphate [4] = variants of: B1; assay: self-cleavage kobs at 640 uM GlcN6P; higher = faster cleavage; RNA array
Method in brief: as §1

glucosamine-6-phosphate [5] = variants of: B1; assay: self-cleavage kobs at 2500 uM GlcN6P; higher = faster cleavage; RNA array
Method in brief: as §1

glucosamine-6-phosphate [6] = variants of: B1; assay: self-cleavage kobs at 10000 uM GlcN6P; higher = faster cleavage; RNA array
Method in brief: as §1

glucosamine-6-phosphate [7] = variants of: B1; assay: self-cleavage kobs at 160 uM GlcN6P; higher = faster cleavage; RNA array
Method in brief: as §1

Row | Variant | kcat (glucosamine-6-phosphate [1]) [s⁻¹] | KM (glucosamine-6-phosphate [2]) [µM] | self-cleavage kobs at 40 uM GlcN6P (glucosamine-6-phosphate [3]) [s⁻¹] | self-cleavage kobs at 640 uM GlcN6P (glucosamine-6-phosphate [4]) [s⁻¹] | self-cleavage kobs at 2500 uM GlcN6P (glucosamine-6-phosphate [5]) [s⁻¹] | self-cleavage kobs at 10000 uM GlcN6P (glucosamine-6-phosphate [6]) [s⁻¹] | self-cleavage kobs at 160 uM GlcN6P (glucosamine-6-phosphate [7]) [s⁻¹]
1 | G40A U55C | 0.0017 ± 0.00029 | 1980 ± 650 | 4.24e-05 ± 1.5e-05 | 0.00035 ± 0.0001 | 0.00119 ± 0.00036 | 0.0014 ± 0.00025 | 
2 | G37A U54C | 0.00259 ± 0.00054 | 3190 ± 910 | 4.82e-05 ± 1.6e-05 | 0.000375 ± 8.4e-05 | 0.00127 ± 0.00026 | 0.00192 ± 0.00042 | 0.000124 ± 2.7e-05
3 | G38U C67A | 1.4e-05 ± 1.8e-06 |  |  |  |  |  | 
4 | G38U C67U | < 1e-05 |  |  |  |  |  | 
5 | G37C C58A G66A C70A C71A | 2.19e-05 ± 8.6e-06 |  |  |  |  |  | 
6 | G38A C50G G63U C71A | 4.03e-05 ± 1.2e-05 |  |  | 4.7e-05 ± 2.1e-05 | 3.94e-05 ± 1.3e-05 |  | 7.25e-05 ± 2.2e-05
7 | G40A A42C | 2.78e-05 ± 3.3e-06 | 1680 ± 670 |  |  |  |  | < 1e-05
8 | G40A A42U | 7.24e-05 ± 1.6e-05 |  |  |  | 7.53e-05 ± 1.2e-05 | 5.75e-05 ± 1.2e-05 | 
9 | G37A U69G | 2.13e-05 ± 3.7e-06 |  |  |  |  |  | 
10 | G37A U69A | 7.14e-05 ± 8.5e-06 | 7590 ± 2000 |  |  |  | 4.06e-05 ± 8.5e-06 | 
11 | G37A G44U | 8.09e-05 ± 2.1e-05 |  |  |  | 4.71e-05 ± 9.1e-06 | 5.95e-05 ± 2.3e-05 | < 1e-05
12 | G40A A52U | 0.000228 ± 7.9e-05 |  |  |  | 9.49e-05 ± 1.5e-05 | 0.000146 ± 2.3e-05 | 
13 | G40A C67U | 0.000237 ± 3.9e-05 | 964 ± 350 |  | 9.44e-05 ± 9.9e-06 | 0.000218 ± 2.6e-05 | 0.000189 ± 2.6e-05 | 2.41e-05 ± 1.1e-05
14 | G37A C67U | 0.000574 ± 0.0001 | 2310 ± 720 |  | 0.000109 ± 1.5e-05 | 0.00036 ± 4.6e-05 | 0.000449 ± 4.9e-05 | 4.58e-05 ± 1.1e-05
15 | G37A C67A | 0.000407 ± 4.2e-05 | 1680 ± 370 |  | 0.000119 ± 2e-05 | 0.000258 ± 4e-05 | 0.000336 ± 4.8e-05 | 
16 | G37A C67G | 1.61e-05 ± 2e-06 |  |  |  |  |  | 
17 | A39U A53G C67G | 0.00494 ± 0.00087 | 963 ± 280 | 0.000219 ± 3.9e-05 | 0.00186 ± 0.00023 | 0.00346 ± 0.00056 | 0.00612 ± 0.0016 | 
18 | G37A G44U A53U | 9.52e-05 ± 3e-05 |  |  |  | 6.43e-05 ± 1.9e-05 | 7.31e-05 ± 2.3e-05 | 
19 | G40A A64C | 6.62e-05 ± 1.1e-05 |  |  |  |  | 5.19e-05 ± 1.5e-05 | 
20 | A39C G44U | 4.89e-05 ± 4.8e-06 | 4080 ± 1200 |  |  |  | 3.48e-05 ± 8.8e-06 | 
